Consider 15 variants from the RNAGym collection of RNA variant scans (doi:10.1093/molbev/msab373).

B1: Azoarcus group I ribozyme (parent)
chain: GUGCCUUGCGCCGGGAAACCACGCAAGGGAUGGUGUCAAAUUCGGCGAAACCUAAGCGCCCGCCCGGGCGUAUGGCAACGCCGAGCCAAGCUUCGGCGCCUGCGCCGAUGAAGGUGUAGAGACUAGACGGCACCCACCUAAGGCAAACGCUAUGGUGAAGGCAUAGUCCAGGGAGUGGCGAAAGUCACACAAACCGG

This data set covers variants of B1. The data set is described as follows: reverse-splicing fitness (ratio to wild type); higher = more active; in vitro selection; Mg2+ level not given. In outline: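 An in vitro group I ribozyme library with randomized positions was T7-transcribed and gel-purified. In triplicate, 10 pmol RNA in EPPS pH 7.5 was reacted with 50 pmoles of a 30-nt RNA substrate for 1 h at 37 °C across several added MgCl2 levels (1–48 mM), then stopped with EDTA. Products were reverse transcribed from a substrate-complementary primer, PCR-amplified and sequenced (HiSeq 4000). Fitness is a variant's read proportion after selection over that before, normalised to wild type.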
GUGCCUUGCGCCGGGAAACCACGCAAGGGAUGGUGUCAAAUUCGGCGAAACCUAAGCGCCCGCCCGGGCGUAUGGCAACGCCGAGCCAAGCUUCGGCGCCUGCGCCGAUGGAGGUGUAGGGACUAGACGGCACCCACCUAAGGCAAACGUUAUGGUGAAGGCAUAGUCCAGGGAGAGGCGAAAGUCACACAAACCGG [A111G A120G C150U U176A]: the reverse-splicing fitness is 0.0505.

Regarding GUGCCUUGCGCCGGGAAACCACGCAAGGGAUGGUGUCAAAUUCGGCGAAACCUAAGCGCCCGCCCGGGCGUAUGGCAACGCCGAGCCAAGCUUCGGCGCCUGCGCCGAUGGAGGUGUAGGGACUAGACGGCACCCACCUAAGGCAAACGUUAUGGUGAAGGCAUAGUCCAGGGAGCGGCGAAAGUCACACAAACCGG [A111G A120G C150U U176C], the reverse-splicing fitness came out at 0.0801.

GUGCCUUGCGCCGGGAAACCACGCAAGGGAUGGUGUCAAAUUCGGCGAAACCUAAGCGCCCGCCCGGGCGUAUGGCAACGCCGAGCCAAGCUUCGGCGCCUGCGCCGAUGGAGGUGUAGGGACUAGACGGCACCCACCUAAGGCAAACGUUAUGGUGAAGGCAUAGUCCAGGGAGGGGCGAAAGUCACACAAACCGG [A111G A120G C150U U176G]: the reverse-splicing fitness was 0.00879.

With GUGCCUUGCGCCGGGAAACCACGCAAGGGAUGGUGUCAAAUUCGGCGAAACCUAAGCGCCCGCCCGGGCGUAUGGCAACGCCGAGCCAAGCUUCGGCGCCUGCGCCGAUGGAGGUGUAGGGACUAGACGGCACCCACCUAAGGCAAACGGUAUGGUGAAGGCAUAGUCGAGGGAGUGGCGAAAGUCACACAAACCGG [A111G A120G C150G C169G], the reverse-splicing fitness came to 0.0259.

Regarding GUGCCUUGCGCCGGGAAACCACGCAAGGGAUGGUGUCAAAUUCGGCGAAACCUAAGCGCCCGCCCGGGCGUAUGGCAACGCCGAGCCAAGCUUCGGCGCCUGCGCCGAUGGAGGUGUAGGGACUAGACGGCACCCACCUAAGGCAAACGGUAUGGUGAAGGCAUAGUCUAGGGAGUGGCGAAAGUCACACAAACCGG [A111G A120G C150G C169U], the reverse-splicing fitness amounted to 0.0264.

Consider GUGCCUUGCGCCGGGAAACCACGCAAGGGAUGGUGUCAAAUUCGGCGAAACCUAAGCGCCCGCCCGGGCGUAUGGCAACGCCGAGCCAAGCUUCGGCGCCUGCGCCGAUGGAGGUGUAGGGACUAGACGGCACCCACCUAAGGCAAACGUUAUGGUGAAGGCAUAGUCAAGGGAGCGGCGAAAGUCACACAAACCGG [A111G A120G C150U C169A U176C], for which the reverse-splicing fitness is 0.0419.

For GUGCCUUGCGCCGGGAAACCACGCAAGGGAUGGUGUCAAAUUCGGCGAAACCUAAGCGCCCGCCCGGGCGUAUGGCAACGCCGAGCCAAGCUUCGGCGCCUGCGCCGAUGGAGGUGUAGGGACUAGACGGCACCCACCUAAGGCAAACGUUAUGGUGAAGGCAUAGUCAAGGGAGAGGCGAAAGUCACACAAACCGG [A111G A120G C150U C169A U176A], the reverse-splicing fitness is 0.0291.

On to GUGCCUUGCGCCGGGAAACCACGCAAGGGAUGGUGUCAAAUUCGGCGAAACCUAAGCGCCCGCCCGGGCGUAUGGCAACGCCGAGCCAAGCUUCGGCGCCUGCGCCGAUGGAGGUGUAGGGACUAGACGGCACCCACCUAAGGCAAACGUUAUGGUGAAGGCAUAGUCAAGGGAGGGGCGAAAGUCACACAAACCGG [A111G A120G C150U C169A U176G], for which the reverse-splicing fitness was determined as 0.00588.

With GUGCCUUGCGCCGGGAAACCACGCAAGGGAUGGUGUCAAAUUCGGCGAAACCUAAGCGCCCGCCCGGGCGUAUGGCAACGCCGAGCCAAGCUUCGGCGCCUGCGCCGAUGGAGGUGUAGGGACUAGACGGCACCCACCUAAGGCAAACGGUAUGGUGAAGGCAUAGUCGAGGGAGGGGCGAAAGUCACACAAACCGG [A111G A120G C150G C169G U176G], the reverse-splicing fitness was found to be 0.00386.

Regarding GUGCCUUGCGCCGGGAAACCACGCAAGGGAUGGUGUCAAAUUCGGCGAAACCUAAGCGCCCGCCCGGGCGUAUGGCAACGCCGAGCCAAGCUUCGGCGCCUGCGCCGAUGGAGGUGUAGGGACUAGACGGCACCCACCUAAGGCAAACGGUAUGGUGAAGGCAUAGUCGAGGGAGCGGCGAAAGUCACACAAACCGG [A111G A120G C150G C169G U176C], the reverse-splicing fitness was 0.00503.

With GUGCCUUGCGCCGGGAAACCACGCAAGGGAUGGUGUCAAAUUCGGCGAAACCUAAGCGCCCGCCCGGGCGUAUGGCAACGCCGAGCCAAGCUUCGGCGCCUGCGCCGAUGGAGGUGUAGGGACUAGACGGCACCCACCUAAGGCAAACGGUAUGGUGAAGGCAUAGUCGAGGGAGAGGCGAAAGUCACACAAACCGG [A111G A120G C150G C169G U176A], the reverse-splicing fitness was 0.0075.

Regarding GUGCCUUGCGCCGGGAAACCACGCAAGGGAUGGUGUCAAAUUCGGCGAAACCUAAGCGCCCGCCCGGGCGUAUGGCAACGCCGAGCCAAGCUUCGGCGCCUGCGCCGAUGGAGGUGUAGGGACUAGACGGCACCCACCUAAGGCAAACGCUAUGGUGAAGGCAUAGUCAAGGGAGAGGCGAAAGUCACACAAACCGG [A111G A120G C169A U176A], the reverse-splicing fitness came out at 0.0455.

GUGCCUUGCGCCGGGAAACCACGCAAGGGAUGGUGUCAAAUUCGGCGAAACCUAAGCGCCCGCCCGGGCGUAUGGCAACGCCGAGCCAAGCUUCGGCGCCUGCGCCGAUGGAGGUGUAGGGACUAGACGGCACCCACCUAAGGCAAACGCUAUGGUGAAGGCAUAGUCAAGGGAGCGGCGAAAGUCACACAAACCGG [A111G A120G C169A U176C]: the reverse-splicing fitness amounted to 0.0737.

Regarding GUGCCUUGCGCCGGGAAACCACGCAAGGGAUGGUGUCAAAUUCGGCGAAACCUAAGCGCCCGCCCGGGCGUAUGGCAACGCCGAGCCAAGCUUCGGCGCCUGCGCCGAUGGAGGUGUAGGGACUAGACGGCACCCACCUAAGGCAAACGGUAUGGUGAAGGCAUAGUCCAGGGAGCGGCGAAAGUCACACAAACCGG [A111G A120G C150G U176C], the reverse-splicing fitness was 0.0173.

Turning to GUGCCUUGCGCCGGGAAACCACGCAAGGGAUGGUGUCAAAUUCGGCGAAACCUAAGCGCCCGCCCGGGCGUAUGGCAACGCCGAGCCAAGCUUCGGCGCCUGCGCCGAUGGAGGUGUAGGGACUAGACGGCACCCACCUAAGGCAAACGGUAUGGUGAAGGCAUAGUCCAGGGAGGGGCGAAAGUCACACAAACCGG [A111G A120G C150G U176G], the reverse-splicing fitness was 0.00356.
